B1: Beclin-2 (Homo sapiens), A8MW95 (parent)
chain: MSSIRFLCQRCHQALKLSGSSESRSLPAAPAPTSGQAEPGDTREPGVTTREVTDAEEQQDGASSRSPPGDGSVSKGHANIFTLLGELGAMHMLSSIQKAAGDIFDIVSGQAVVDHPLCEECTDSLLEQLDIQLALTEADSQNYQRCLETGELATSEDEAAALRAELRDLELEEARLVQELEDVDRNNARAAADLQAAQAEAAELDQQERQHYRDYSALKRQQLELLDQLGNVENQLQYARVQRDRLKEINCFTATFEIWVEGPLGVINNFRLGRLPTVRVGWNEINTAWGQAALLLLTLANTIGLQFQRYRLIPCGNHSYLKSLTDDRTELPLFCYGGQDVFLNNKYDRAMVAFLDCMQQFKEEAEKGELGLSLPYGIQVETGLMEDVGGRGECYSIRTHLNTQELWTKALKFMLINFKWSLIWVASRYQK
partner: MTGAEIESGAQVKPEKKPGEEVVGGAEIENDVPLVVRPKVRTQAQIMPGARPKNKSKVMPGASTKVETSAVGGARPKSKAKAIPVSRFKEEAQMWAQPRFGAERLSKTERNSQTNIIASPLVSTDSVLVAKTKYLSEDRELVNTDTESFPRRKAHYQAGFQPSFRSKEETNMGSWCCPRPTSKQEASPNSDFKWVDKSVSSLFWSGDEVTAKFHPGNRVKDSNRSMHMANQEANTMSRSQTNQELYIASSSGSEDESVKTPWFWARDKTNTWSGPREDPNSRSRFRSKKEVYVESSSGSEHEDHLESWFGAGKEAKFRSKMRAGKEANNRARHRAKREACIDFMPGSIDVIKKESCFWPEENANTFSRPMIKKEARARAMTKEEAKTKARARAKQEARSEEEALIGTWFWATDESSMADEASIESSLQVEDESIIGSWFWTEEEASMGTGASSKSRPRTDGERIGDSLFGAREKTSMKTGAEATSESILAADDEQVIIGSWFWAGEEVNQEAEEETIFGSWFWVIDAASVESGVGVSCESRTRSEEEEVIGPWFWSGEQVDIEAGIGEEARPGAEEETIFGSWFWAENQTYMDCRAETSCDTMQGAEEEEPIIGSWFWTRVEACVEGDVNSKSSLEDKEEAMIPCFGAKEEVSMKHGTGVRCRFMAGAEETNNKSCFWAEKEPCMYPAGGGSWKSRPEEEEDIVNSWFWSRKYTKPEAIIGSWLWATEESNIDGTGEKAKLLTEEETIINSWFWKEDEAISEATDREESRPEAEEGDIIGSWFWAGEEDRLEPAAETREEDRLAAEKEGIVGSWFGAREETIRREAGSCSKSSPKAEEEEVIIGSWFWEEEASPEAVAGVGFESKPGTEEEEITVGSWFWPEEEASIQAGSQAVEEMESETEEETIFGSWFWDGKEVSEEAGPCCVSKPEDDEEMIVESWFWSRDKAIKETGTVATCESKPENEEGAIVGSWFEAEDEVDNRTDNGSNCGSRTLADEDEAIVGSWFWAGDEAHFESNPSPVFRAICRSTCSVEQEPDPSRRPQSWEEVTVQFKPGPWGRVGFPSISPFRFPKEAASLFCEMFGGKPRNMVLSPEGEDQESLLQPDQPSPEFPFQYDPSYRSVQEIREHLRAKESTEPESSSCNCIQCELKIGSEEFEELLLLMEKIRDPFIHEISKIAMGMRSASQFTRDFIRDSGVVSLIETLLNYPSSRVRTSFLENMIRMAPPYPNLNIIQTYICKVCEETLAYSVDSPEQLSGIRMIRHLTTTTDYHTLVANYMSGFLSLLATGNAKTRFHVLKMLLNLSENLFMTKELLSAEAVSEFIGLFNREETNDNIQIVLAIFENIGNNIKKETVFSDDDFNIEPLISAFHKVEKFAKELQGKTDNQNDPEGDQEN

Variants of: B1
Settings: with gasp1_human GPRASP1, Q5JY77

effect of a mutation on the interaction	Variant
disrupting interaction strength	I80S
